{"source": "patent US20030100501A1", "about": "“Q4N2NEG2 enhances CFTR activity” (Case Western Reserve University, priority 2001, published 2003)", "key": {"mutant G551D CFTR": {"molecular_target": "T1, mutant G551D CFTR (Homo sapiens, UniProt P13569, G551D)", "T1 construct": "expressed in transfected cells; host or cells: 293-EBNA HEK cells (inferred: the methods describe this line for 'the CFTR proteins')", "T1 sequence (P13569 whole entry G551D)": "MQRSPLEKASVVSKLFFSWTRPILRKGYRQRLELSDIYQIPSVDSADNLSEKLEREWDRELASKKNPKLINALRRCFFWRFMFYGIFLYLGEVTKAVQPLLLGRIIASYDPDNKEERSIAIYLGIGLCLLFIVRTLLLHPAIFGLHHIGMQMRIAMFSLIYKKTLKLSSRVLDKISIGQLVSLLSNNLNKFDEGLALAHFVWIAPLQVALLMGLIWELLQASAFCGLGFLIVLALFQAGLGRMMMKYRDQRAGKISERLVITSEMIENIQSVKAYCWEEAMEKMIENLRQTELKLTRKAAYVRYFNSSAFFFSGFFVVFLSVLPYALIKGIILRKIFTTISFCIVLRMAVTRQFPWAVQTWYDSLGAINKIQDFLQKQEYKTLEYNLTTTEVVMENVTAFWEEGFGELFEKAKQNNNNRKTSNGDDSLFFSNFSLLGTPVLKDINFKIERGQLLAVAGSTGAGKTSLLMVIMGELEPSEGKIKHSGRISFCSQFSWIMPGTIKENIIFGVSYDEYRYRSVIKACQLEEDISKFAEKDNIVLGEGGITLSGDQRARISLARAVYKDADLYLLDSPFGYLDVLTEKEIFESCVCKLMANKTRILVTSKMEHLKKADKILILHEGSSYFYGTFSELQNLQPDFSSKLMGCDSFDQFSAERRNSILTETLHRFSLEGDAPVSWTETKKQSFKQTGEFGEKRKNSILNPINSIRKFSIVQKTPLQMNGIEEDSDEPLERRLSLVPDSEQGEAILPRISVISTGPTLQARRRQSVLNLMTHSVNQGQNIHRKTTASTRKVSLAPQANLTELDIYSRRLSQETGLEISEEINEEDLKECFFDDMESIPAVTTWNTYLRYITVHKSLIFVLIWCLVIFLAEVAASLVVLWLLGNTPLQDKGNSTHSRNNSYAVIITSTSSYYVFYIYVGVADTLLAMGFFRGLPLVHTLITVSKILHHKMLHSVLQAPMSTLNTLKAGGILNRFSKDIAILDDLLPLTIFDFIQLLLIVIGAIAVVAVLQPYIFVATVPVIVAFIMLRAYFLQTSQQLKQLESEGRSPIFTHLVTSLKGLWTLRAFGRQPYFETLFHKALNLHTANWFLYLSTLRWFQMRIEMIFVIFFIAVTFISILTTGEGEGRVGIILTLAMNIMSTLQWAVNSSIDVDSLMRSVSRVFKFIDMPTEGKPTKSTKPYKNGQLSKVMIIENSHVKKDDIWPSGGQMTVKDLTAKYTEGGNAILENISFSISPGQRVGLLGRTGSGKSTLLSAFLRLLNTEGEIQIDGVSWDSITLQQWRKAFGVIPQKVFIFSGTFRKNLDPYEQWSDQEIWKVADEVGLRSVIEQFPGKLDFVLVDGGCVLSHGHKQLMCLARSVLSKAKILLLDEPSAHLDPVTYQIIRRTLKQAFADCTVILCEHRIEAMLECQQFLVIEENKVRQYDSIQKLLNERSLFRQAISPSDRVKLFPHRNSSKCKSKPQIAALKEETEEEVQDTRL", "experiment": "Planar lipid bilayer open probability of mutant CFTR", "format": "biochemical", "text": "The Q4 N2 NEG2 peptide sequence has been tested on one mutant form of CFTR, G551D, which reaches the plasma membrane. In the planar lipid bilayer, Q4N2NEG2 increased the open probability of G551 by about threefold. Thus, this peptide is useful to stimulate channel activity in mutant forms of CFTR that reach the plasma membrane.\n(§1) Lipid bilayer membranes were formed across an aperture of ˜200 (m diameter with a mixture of phosphatidylethanolamine:phosphatidylserine:cholesterol in a ratio of 5:5:1. The lipids were dissolved in decane at a concentration of 33 mg/ml. The recording solutions contained: cis (intracellular), 200 mM CsCl, 1 mM MgCl2, 2 mM ATP, and 10 mM HEPES-Tris (pH 7.4); trans (extracellular), 50 mM CsCl, 10 mM HEPES-Tris (pH 7.4). Vesicles (1-4 (1) containing wild-type CFTR were added to the cis solution. The PKA catalytic subunit was present at a concentration of 50 units/ml in the cis solution unless noted otherwise. Single channel currents were recorded with an Axopatch 200A patch clamp unit (Axon Instruments). The currents were sampled at 1-2.5 ms/point. Single channel data analyses were performed with pClamp and TIPS softwares."}, "wt-CFTR channel": {"molecular_target": "T2, wt-CFTR channel (Homo sapiens, UniProt P13569)", "T2 construct": "expressed in transfected cells; host or cells: 293-EBNA HEK cells (Invitrogen) transfected with pCEP4(wt); microsomal membrane vesicles", "T2 sequence (P13569 whole entry)": "as the sequence (P13569 whole entry G551D) above, with D551G counted along it", "experiment": "Single channel recording of CFTR channels reconstituted in planar lipid bilayer, peptide added to cis (intracellular) side", "format": "biochemical", "text": "The activating peptide of Q4N2NEG2 was created by substituting glutamine residues for glutamic acid residues at four sites and asparagines for aspartic acid residues at two sites of the authentic NEG2 peptide sequence […] (SEQ ID NO: 7). In addition, a serine residue was substituted for cysteine, to prevent peptide dimerization, and norleucine was substituted for methionine, to prevent oxidation. These changes create a peptide with reduced chemical reactivity and high predicted helical structure, confirmed by circular dichroism, as well as reduced net negative charge (from −9 to −3). […] At concentrations of 4-6 μM Po of CFTR doubles.\nTo test whether the Q4N2NEG2 polypeptide is responsible for increasing the open probability of the CFTR channel, synthetic Q4N2NEG2, a 22 amino acid peptide, was added to the cis-intracellular side of single CFTR channels captured in the planar lipid bilayer (FIG. 1). […] During stimulation, the open probability doubles and more transitions are observed between the open and closed states (FIG. 1B). The open probability observed in 5 experiments at 4 μM concentration Q4N2NEG2 is shown to be increased by about two-fold in the graph (FIG. 1C).\nThe wt CFTR cDNA was subcloned into an Epstein-Barr virus-based episomal eukaryotic expression vector, pCEP4 (Invitrogen, San Diego, Calif.), between the Nhe1 and Xho1 restriction sites.\nA human embryonic kidney cell line (293-EBNA HEK; Invitrogen) was used for transfection and expression of the CFTR proteins (Ma et al., 1997, Ma et al., 1996, Xie et al., 1995). The HEK-293 cell line contains a pCMV-EBNA vector, which constitutively expresses the Epstein-Barr virus nuclear antigen-1 (EBNA-1) gene product and increases the transfection efficiency of Epstein-Barr virus-based vectors. The cells were maintained in Dulbecco's Modified Eagle Medium with 10% FBS and 1% L-glutamine. Geneticin (G418, 250 (g/ml) was added to the cell culture medium to maintain selection of the cells containing the pCMV-EBNA vector. Lipofectamine reagent (Life Technologies, Inc) in Optimem media (serum-free) was used to transfect the HEK-293 cells with pCEP4(wt). After 5 hours, serum was added to the media (10% final serum concentration). Twenty-four hours after transfection, the transfection media was replaced with fresh media. The cells were harvested two days after transfection and microsomal membrane vesicles were prepared for single channel measurements in the lipid bilayer reconstitution system.\nHEK-293 cells transfected with pCEP4(CFTR) were harvested and homogenized using a combination of hypotonic lysis and Dounce homogenization in the presence of protease inhibitors (Ma et al., 1997, Ma et al., 1996, Xie et al., 1995). […]\nas §1, with “The currents were sampled at 1-2.5 ms/point. Single channel data analyses were performed with pClamp and TIPS softwares.” left out"}}, "note": "Square brackets hold non-standard residues; d marks the D form. Ends that are not written are not given here. Nle = CCCC[C@H](N)C(=O)O"}
{"sequence": "GLEISEQINQQNLKQSFFNDLE (Ac-GLEISEQINQQNLKQSFFND[Nle]E; not fully specified (C-terminus)) [Q4N2NEG2, synthetic 22 amino acid peptide derived from NEG2 with four Glu to Gln, two Asp to Asn, Cys to Ser, Met to norleucine substitutions]", "values": [{"measurement": "increase in open probability of G551D CFTR", "setting": "mutant G551D CFTR", "result": "about threefold"}, {"measurement": "increase in open probability (Po) of CFTR channel", "setting": "wt-CFTR channel; 4 μM peptide, summary of 5 experiments (FIG. 1C)", "result": "about two-fold"}, {"measurement": "inhibitory activity on CFTR channel", "setting": "wt-CFTR channel; any experiment at any concentration of peptide", "result": "No inhibitory activity"}, {"measurement": "stimulation of channel activity", "setting": "wt-CFTR channel; concentration ranging 0.5 to 14 μM, cis side", "result": "marked dose-related stimulation"}, {"measurement": "Po of CFTR", "setting": "wt-CFTR channel; peptide concentrations of 4-6 μM, cis side", "result": "doubles"}, {"measurement": "open probability during stimulation, single wt-CFTR channel", "setting": "wt-CFTR channel; single channel trace, FIG. 1A/1B, 4 μM", "result": "doubles"}]}
